Here are results for 1 substance from patent publication US12083165B2, “Thymosin alpha 1 for use in treatment of cystic fibrosis” (SciClone Pharmaceuticals International (SG) PTE. LTD., priority 2015, dated 2024).

What all share (format): cell-based
In experiment [1] the target is T1, ΔF508 CFTR (Homo sapiens, UniProt P13569, DEL508-508). Briefly: CFTR immunoblot (mature C / immature B band) in CFBE41o− cells stably expressing ΔF508 CFTR. As to the method: Cells. Cell Lines and Cell Culture—Human bronchial epithelial (HBE) cells, homozygous for the […] mutation and its isogenic wild-type were obtained from lung transplants (CF patients) or lung resections (non-CF patients) (kindly provided by L J Galietta within the Italian Cystic Fibrosis Foundation). Cells were maintained at 37° C. in a humidified incubator in an atmosphere containing 5% CO2, and the experiments were done 5 days after plating (21, 22). Stable lentiviral-based transduction of the parental CFBE41o− cells (ΔF508/ΔF508), originally immortalized and characterized by Dr. D. Gruenert and co-workers (32) with either WT-CFTR or ΔF508-CFTR, was performed by Tranzyme, Inc. (Birmingham, AL). The transduced CFBE41o− cells were maintained in minimum Eagle's medium supplemented with 50 units/ml penicillin, 50 μg/ml streptomycin, 2 mM L-glutamine, 10% fetal bovine serum, and 1 μg/ml blasticidine (WT-CFTR) or 2 μg/ml puromycin (ΔF508-CFTR) in a 5% CO2, 95% air incubator at 37° C. The parental CFBE41o− cells were maintained under the same culture conditions but without blasticidine or puromycin. To establish polarized monolayers, CFBE41o− cells were seeded on 24-mm-diameter Transwell permeable supports ([…] pore size; Corning Corp., Corning, NY) at 2×10^6 and grown in air-liquid interface culture at 37° C. for 6-9 days and then at 27° C. for 36 hours. Cells were incubated with Tα1 100 ng/ml (CRIBI Biotechnology, Padova, see below), 3 μM VX-809 (Lumacaftor, Aurogene Rome, Italy), 1 μM VX-770 (Ivacaftor, Aurogene) alone or in combination for 24 hours before the assessment of CFTR protein expression and function. DMSO vehicle alone (0.1%, v/v) for 24 h was used as a control.
T1 sequence (P13569 with tags, fused parts or gaps DEL508-508): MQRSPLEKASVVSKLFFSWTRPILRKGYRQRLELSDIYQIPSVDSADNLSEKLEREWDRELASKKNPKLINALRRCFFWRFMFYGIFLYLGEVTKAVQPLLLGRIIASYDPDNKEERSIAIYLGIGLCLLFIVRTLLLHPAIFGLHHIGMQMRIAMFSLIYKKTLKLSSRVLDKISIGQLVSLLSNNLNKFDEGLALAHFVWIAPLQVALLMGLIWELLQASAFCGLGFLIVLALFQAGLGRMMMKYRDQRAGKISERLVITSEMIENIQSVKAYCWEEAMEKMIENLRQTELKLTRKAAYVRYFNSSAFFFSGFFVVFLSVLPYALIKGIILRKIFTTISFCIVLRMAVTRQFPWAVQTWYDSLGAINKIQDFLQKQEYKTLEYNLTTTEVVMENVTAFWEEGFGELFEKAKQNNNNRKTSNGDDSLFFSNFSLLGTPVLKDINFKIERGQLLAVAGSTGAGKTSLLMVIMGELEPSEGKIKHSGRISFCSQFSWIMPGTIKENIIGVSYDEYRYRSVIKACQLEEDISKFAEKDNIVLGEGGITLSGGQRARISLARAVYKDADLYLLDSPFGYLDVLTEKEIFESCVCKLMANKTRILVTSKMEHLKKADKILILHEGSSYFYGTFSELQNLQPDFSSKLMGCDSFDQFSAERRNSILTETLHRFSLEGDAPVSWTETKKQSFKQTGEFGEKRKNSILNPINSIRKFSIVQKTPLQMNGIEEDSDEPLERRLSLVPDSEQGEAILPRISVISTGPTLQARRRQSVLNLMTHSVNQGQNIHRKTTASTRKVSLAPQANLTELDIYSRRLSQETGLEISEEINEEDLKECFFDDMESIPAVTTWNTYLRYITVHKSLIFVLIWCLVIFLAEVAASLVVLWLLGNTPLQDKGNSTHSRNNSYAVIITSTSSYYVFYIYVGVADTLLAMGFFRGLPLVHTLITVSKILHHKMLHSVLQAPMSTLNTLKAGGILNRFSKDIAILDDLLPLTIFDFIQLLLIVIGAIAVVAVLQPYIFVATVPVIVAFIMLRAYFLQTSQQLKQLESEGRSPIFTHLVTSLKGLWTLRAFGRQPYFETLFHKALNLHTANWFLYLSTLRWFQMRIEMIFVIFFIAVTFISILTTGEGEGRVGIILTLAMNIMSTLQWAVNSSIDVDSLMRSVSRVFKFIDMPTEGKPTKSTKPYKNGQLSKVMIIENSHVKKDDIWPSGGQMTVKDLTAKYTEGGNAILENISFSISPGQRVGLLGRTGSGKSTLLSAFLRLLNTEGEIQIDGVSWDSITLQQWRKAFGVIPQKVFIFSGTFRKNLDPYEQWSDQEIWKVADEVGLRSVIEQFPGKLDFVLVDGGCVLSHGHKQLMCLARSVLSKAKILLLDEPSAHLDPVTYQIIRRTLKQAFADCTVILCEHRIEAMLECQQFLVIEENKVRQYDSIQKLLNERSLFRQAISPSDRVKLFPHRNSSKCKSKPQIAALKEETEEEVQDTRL
(§1) CFTR Immunoblot Analysis. Immunoblot techniques using the anti-CFTR antibody (clone CF3, Abcam) were used to measure CFTR maturation in FRT, HEK-293, or HBE cells expressing CFTR or F508del-CFTR (34). After incubation, cells were harvested in ice-cold D-PBS solution (without calcium and magnesium) and pelleted at 1,000×g at 4° C. Cell pellets were lysed in 1% Nonidet P-40, 0.5% sodium deoxycholate, 200 mM NaCl, 10 mM Tris, pH 7.8, and 1 mM EDTA plus protease inhibitor mixture (1:250; Roche) for 30 min on ice. Lysates were spun for 10 min at 10,000×g at 4° C. to pellet nuclei and insoluble material. […] LiteAblotPlus chemiluminescence substrate (Euroclone S.p.A.), using ChemiDoc™ XRS+ Imagig system (Bio-Rad Laboratories) and blot quantification was obtained by densitometry image analysis using Image Lab 3.1.1 software (Bio-Rad).
(§2) The SV40 transformed CF airway epithelial cell line (CFBE41o−), homozygous for the ΔF508-CFTR mutation, was used (32). […] CFTR bands were quantified by densitometry and expressed as the C/B ratio. […]
For orientation: A western blot detects proteins with antibodies after separation by electrophoresis.

The target of the next experiment is T2, CFTR (Homo sapiens, UniProt P13569, DEL508-508).
T2 construct: endogenous in cells; host or cells: primary HBE cells from lung transplants of CF patients
T2 sequence (P13569 with tags, fused parts or gaps DEL508-508): as above
In words: CFTR protein expression (band C) in HBE cells from CF patients. The note with it: 100 ng/ml Tα1 for 24 hours, cells from 5 CF patients. As to the method: Cells. Cell Lines and Cell Culture—Human bronchial epithelial (HBE) cells, homozygous for the […] mutation and its isogenic wild-type were obtained from lung transplants (CF patients) or lung resections (non-CF patients) (kindly provided by L J Galietta within the Italian Cystic Fibrosis Foundation). Cells were maintained at 37° C. in a humidified incubator in an atmosphere containing 5% CO2, and the experiments were done 5 days after plating (21, 22). Stable lentiviral-based transduction of the parental CFBE41o− cells (ΔF508/ΔF508), originally immortalized and characterized by Dr. D. Gruenert and co-workers (32) with either WT-CFTR or ΔF508-CFTR, was performed by Tranzyme, Inc. (Birmingham, AL). […]
CFTR Immunoblot Analysis. […] LiteAblotPlus chemiluminescence substrate (Euroclone S.p.A.), using ChemiDoc™ XRS+ Imagig system (Bio-Rad Laboratories) and blot quantification was obtained by densitometry image analysis using Image Lab 3.1.1 software (Bio-Rad).
as §2

In experiment [2] the target is T1, ΔF508 CFTR. In words: Immunoblot of purified plasma membrane (PM) fraction for CFTR. The settings on record: 100 ng/ml Tα1, plasma membrane fraction. As for the experimental part:
as §1, with “material. Approximately 12 μg total protein was heated in Laemmli buffer with 5% β-mercaptoethanol at 37° C. for 5 min and loaded onto a 3% to 8% Tris-acetate gel (Invitrogen).” for “material.”
The SV40 transformed CF airway epithelial cell line (CFBE41o−), homozygous for the ΔF508-CFTR mutation, was used (32). […] CFTR bands were quantified by densitometry and expressed as the C/B ratio. […] Densitometric measurement of the CFTR (C band) at the PM was expressed as CFTR PM/CFTR total ratio (Panel C, FIG. 2).

For the substance “Ac-Ser-Asp-Ala-Ala-Val-Asp-Thr-Ser-Ser-Glu-Ile-Thr-Thr-Lys-Asp-Leu-Lys-Glu-Lys-Lys-Glu-Val-Val-Glu-Glu-Ala-Glu-Asn-O (Ac-SDAAVDTSSEITTKDLKEKKEVVEEAEN-OH; not fully specified; printed as Ac-Ser-Asp-Ala-Ala-Val-Asp-Thr-Ser-Ser-Glu-Ile-Thr-Thr-Lys-Asp-Leu-Lys-Glu-Lys-Lys-Glu-Val-Val-Glu-Glu-Ala-Glu-Asn-O; listed as Homo sapiens) [Tα1, naturally occurring polypeptide of 28 amino acid; supplied as purified sterile, lyophilized, acetylated polypeptide]”, the “cellular expression of ΔF508 mature CFTR (band C, C/B ratio)” value with ΔF508 CFTR [1] (100 ng/ml Tα1, from 30 mins until 24 hours, CFBE41o− cells expressing ΔF508 CFTR) is on record as “persistently increased”. The “expression of the mature form (C) relative to the immature form (B) of CFTR” value in the experiment with ΔF508 CFTR [1] (ΔF508-transfected cells, 24 hours, Tα1 100 ng/ml, VX-770 1 μM, VX-809 3 μM alone or in combination) is “increased”. Moreover, in the experiment with CFTR, the “CF patients whose HBE cells showed increased expression of CFTR (band C)” value is reported as 3 patients. In addition, in the experiment with ΔF508 CFTR [2], the “expression of ΔF508 CFTR at PM (CFTR PM/CFTR total ratio)” value is “increased”.
